The nature of the data set: sequential release of drugs from core-shell nano-disordered electrospun fiber structure. The data set is classed as physicochemical. The note with it: composite electrospun layer of Example 1; roxithromycin in shell layer fiber, human epidermal growth factor in core layer fiber. From the text: Moreover, the transmission electron microscopic image of the core-shell nano-disordered electrospun fiber structure in the composite electrospun layer prepared in Example 1 is shown in FIG. 3. […] The coaxial electrospinning realizes the sequential and timed release of the two drugs in the same electrospun layer. Further, the electrospun layer can be prepared by triaxial electrospinning or multiaxial electrospinning process, which has a core-shell structure of three core layers or multi-core layers, thereby achieving the sequential and timed release of three or more drugs in the same electrospun layer.

B1: human epidermal growth factor: growth factor gel loaded in PVA core layer fiber (protein, UniProt P01133 23-1207, looked up)
Pro-epidermal growth factor: PQHWSCPEGTLAGNGNSTCVGPAPFLIFSHGNSIFRIDTEGTNYEQLVVDAGVSVIMDFHYNEKRIYWVDLERQLLQRVFLNGSRQERVCNIEKNVSGMAINWINEEVIWSNQQEGIITVTDMKGNNSHILLSALKYPANVAVDPVERFIFWSSEVAGSLYRADLDGVGVKALLETSEKITAVSLDVLDKRLFWIQYNREGSNSLICSCDYDGGSVHISKHPTQHNLFAMSLFGDRIFYSTWKMKTIWIANKHTGKDMVRINLHSSFVPLGELKVVHPLAQPKAEDDTWEPEQKLCKLRKGNCSSTVCGQDLQSHLCMCAEGYALSRDRKYCEDVNECAFWNHGCTLGCKNTPGSYYCTCPVGFVLLPDGKRCHQLVSCPRNVSECSHDCVLTSEGPLCFCPEGSVLERDGKTCSGCSSPDNGGCSQLCVPLSPVSWECDCFPGYDLQLDEKSCAASGPQPFLLFANSQDIRHMHFDGTDYGTLLSQQMGMVYALDHDPVENKIYFAHTALKWIERANMDGSQRERLIEEGVDVPEGLAVDWIGRRFYWTDRGKSLIGRSDLNGKRSKIITKENISQPRGIAVHPMAKRLFWTDTGINPRIESSSLQGLGRLVIASSDLIWPSGITIDFLTDKLYWCDAKQSVIEMANLDGSKRRRLTQNDVGHPFAVAVFEDYVWFSDWAMPSVMRVNKRTGKDRVRLQGSMLKPSSLVVVHPLAKPGADPCLYQNGGCEHICKKRLGTAWCSCREGFMKASDGKTCLALDGHQLLAGGEVDLKNQVTPLDILSKTRVSEDNITESQHMLVAEIMVSDQDDCAPVGCSMYARCISEGEDATCQCLKGFAGDGKLCSDIDECEMGVPVCPPASSKCINTEGGYVCRCSEGYQGDGIHCLDIDECQLGEHSCGENASCTNTEGGYTCMCAGRLSEPGLICPDSTPPPHLREDDHHYSVRNSDSECPLSHDGYCLHDGVCMYIEALDKYACNCVVGYIGERCQYRDLKWWELRHAGHGQQQKVIVVAVCVVVLVMLLLLSLWGAHYYRTQKLLSKNPKNPYEESSRDVRSRRPADTEDGMSSCPQPWFVVIKEHQDLKNGGQPVAGEDGQAADGSMQPTSWRQEPQLCGMGTEQGCWIPVSSDKGSCPQVMERSFHMPSYGTQTLEGGVEKPHSLLSANPLWQQRALDPPHQMELTQ
modifications: Pro-epidermal growth factor
notes: growth factor gel loaded in PVA core layer fiber
Consider B1, for which the “order of drug release from core-shell fiber” value is reported as “subsequently released”.

The record behind these values is patent US20250134683A1, “MICRO-NANO MEDICAL STENT FOR DIRECTIONAL, QUANTITATIVE AND TIMED RELEASE OF DRUG AND PREPARATION METHOD THEREOF” (GUANGDONG UNIVERSITY OF TECHNOLOGY, priority 2023, published 2025).
